The values that follow come from patent US20150376286A1 (Amgen, published 2015).

Where a chain is given by its changes, count along the chain named. Where only a bound is given, the exact number is not on record here.

Usually Ki stands for the equilibrium dissociation constant of an inhibitor or competing ligand from its target. The term Kd denotes the equilibrium constant for the complex coming apart. What is called EC50 (read off the curve) is the concentration needed to bring the measured effect to its halfway point.

For assay [1], the target named is T1, human CGRP receptor (CRLR + RAMP1) (human, UniProt Q16602 23-461; O60894 27-148). The assay is described as follows: cell-based or functional assay.
The target in assay [2] is T2, cynomolgus CGRP receptor (cynoCRLR + cynoRAMP1) (cynomolgus monkey).
T2 chain 1: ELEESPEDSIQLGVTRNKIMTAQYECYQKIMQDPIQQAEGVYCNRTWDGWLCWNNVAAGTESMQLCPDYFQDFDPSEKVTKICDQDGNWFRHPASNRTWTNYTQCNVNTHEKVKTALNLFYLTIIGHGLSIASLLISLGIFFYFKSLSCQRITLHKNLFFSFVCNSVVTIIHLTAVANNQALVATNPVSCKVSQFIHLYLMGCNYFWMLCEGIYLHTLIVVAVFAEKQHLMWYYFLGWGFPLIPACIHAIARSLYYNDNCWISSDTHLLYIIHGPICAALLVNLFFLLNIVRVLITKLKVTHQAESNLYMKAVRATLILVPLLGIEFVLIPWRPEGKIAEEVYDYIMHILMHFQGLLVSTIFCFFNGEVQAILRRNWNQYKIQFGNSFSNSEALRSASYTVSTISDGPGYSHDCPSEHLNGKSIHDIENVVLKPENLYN
T2 chain 2: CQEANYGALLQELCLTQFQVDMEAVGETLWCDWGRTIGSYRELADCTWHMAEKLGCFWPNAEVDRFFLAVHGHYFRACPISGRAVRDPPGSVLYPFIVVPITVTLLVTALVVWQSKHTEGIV
In words: cell-based or functional assay.

A further assay deals with rat CGRP receptor (rat, UniProt Q63118 24-464; Q9JJ74 27-148). In words: cell-based or functional assay.
The target in assay [3] is human amylin AMY1 receptor (hCTR + hRAMP1) (human, UniProt P30988 25-474). The assay is described as follows: cell-based or functional assay.
For assay [4], the target named is human adrenomedullin receptor 1 (hCRLR + hRAMP2) (human, UniProt O60895 43-175). The assay is described as follows: cell-based or functional assay.
The target of assay [5] is human adrenomedullin receptor 2 (hCRLR + hRAMP3) (human, UniProt O60896 24-148). The assay is described as follows: cell-based or functional assay.
Assay [6] deals with T1, human CGRP receptor (CRLR + RAMP1). In words: 125I-CGRP competition binding, HTB-10 cell membranes. The procedure: The plates were incubated at room temperature for 2 hours with shaking at 60 rpm, and then the contents of each well were filtered over 0.5% polyethyleneimine (PEI)-treated (for at least one hour) GF/C 96-well filter plates. The GF/C filter plates were washed six times with ice-cold 50 mM Tris, pH 7.5 and dried in an oven at 55° C. for 1 hour. The bottoms of the GF/C plates were then sealed. 40 μl Microscint™ 20 was added to each well, the tops of the GF/C plates were sealed with TopSeal™-A (a press-on adhesive sealing film), and the GF/C plates were counted with TopCount NXT (Packard). The data were analyzed using Prizm (GraphPad Software Inc.)

For assay [7] the target is unchanged. In words: FACS on AM-1 CHO huCGRP R cells, KinExA n-curve analysis. On the procedure: (§1) Briefly, AM-1 CHO huCGRP R-expressing cells, prepared as described above, were plated in 96-well plates at densities of 16,000 or 160,000 cells per well in DMEM medium containing 10% FBS, NEAA, PS, L Glut, NaPyr and 0.05% sodium azide. […] After an overnight incubation at 4° C. in a total volume of 120 μl, on a plate shaker, the cells were washed 2× with PBS+2% FBS, centrifuging and discarding supernatant each time. 100 μl/well of G anti-Hu Fc Cy5 (5 μg/mL; Jackson ImmunoResearch Laboratories Inc., West Grove, Pa., USA) containing 7AAD (5 μl/well) was then added and incubated at 4° C. for 40 min. The cells were washed 2× with PBS+2% FBS, centrifuging and discarding the supernatant each time. 100 μl PBS+2% FBS buffer was then added and analyzed by FACS to determined the binding geomean. The Kd was calculated using KinExA software by taking the negative geomean at each antibody concentration as the amount of free Ab present Rathanaswami, et al., Biochemical and Biophysical Research Communications 334 (2005) 1004-1013.
(In KinExA the mixture passes briefly over coated beads that capture the unbound partner.)

Assay [8] shares this target. The assay is described as follows: FACS Kd determination on AM-1 CHO huCGRP R cells; left-hand curve, cell density not labelled on the sheet. On the procedure: as §1
Assay [9] has the same target. In words: FACS Kd determination on AM-1 CHO huCGRP R cells; right-hand curve, cell density not labelled on the sheet. On the procedure:
as §1

Assay [10] has as its target T3, soluble CGRP receptor-muFc fusion protein (human).
T3 construct: also called CGRP R-muFc; not shown: mouse Fc
T3 chain 1: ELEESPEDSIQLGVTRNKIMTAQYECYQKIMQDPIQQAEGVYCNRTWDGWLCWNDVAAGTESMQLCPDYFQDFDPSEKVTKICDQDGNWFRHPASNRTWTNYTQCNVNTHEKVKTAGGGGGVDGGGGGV
T3 chain 2: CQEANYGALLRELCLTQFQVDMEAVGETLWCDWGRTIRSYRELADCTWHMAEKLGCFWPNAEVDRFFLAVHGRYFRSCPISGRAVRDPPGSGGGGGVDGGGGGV
In words: Western blot. The procedure:
The sample containing βME was then boiled for 4 min. […] Gels were electroblotted onto 0.2 μm nitrocellulose filters (Invitrogen). The blots were washed with Tris-buffered saline+1% Tween 20 (TBST) and then blocked with TBST+5% powered dry milk for 30 min. The blots were cut into strips along the molecular weight marker lanes. […] Blots were incubated with the antibodies for one hour followed by 3×10 min washes with TBST+1% milk. The blots treated with the huCGRP R antibodies were then incubated with goat anti-mouse IgG-Fc-HRP (1:10,000 in TBST+1% milk) and the blots treated with anti-huRAMP1 (N-20 anti-RAMP1 goat polyclonal antibody, Santa Cruz Biotech, CA) were incubated with rabbit anti-goat IgG-Fc-HRP (1:10,000) for 20 min. Blots were washed 3×15 min with TBST. The huCGRP R and anti-huRAMP1 antibody blots were treated with Pierce Supersignal West Pico Detection reagent, and the anti-mouse and anti-human IgG-Fc-HRP blots were treated with Pierce standard Detection Reagent (1 min.). Blots were then exposed with Kodak Biomax MS X-ray film.
(A western blot detects proteins with antibodies after separation by electrophoresis.)

Assay [11] deals with T1, human CGRP receptor (CRLR + RAMP1). The assay is described as follows: FACS on transfected 293-6E cells. The procedure: (§2) Cells were harvested after 72 hr, washed with PBS+0.5% BSA, and counted. Each transfected cell line was resuspended at a dilution of 5×10⁵ cells per 100 μl PBS/BSA. 100 μl of cell suspension was aliquot per well in a 96-well round-bottom plate (Falcon). The cells were pelleted at 1200 rpm for 5 min. […] Cells were incubated on ice for 1 hr. and then washed twice with PBS/BSA. […] Cells were incubated on ice in the dark for 1 hr. and then washed twice with PBS/BSA. Cells were resuspended in 200 μl PBS/BSA and analyzed using a FACS Calibur.

The target in assay [12] is T4, chimeric CGRP receptor: CRLR wt + RAMP1 chimera #2 (Q43 to E53) (human; human/rat chimera, UniProt Q16602 23-461; O60894 27-148).
T4 construct: also called CRLR wt+RAMP1 Q43-E53
T4 chain 1: T2 chain 1 with N55D, V431L
T4 chain 2: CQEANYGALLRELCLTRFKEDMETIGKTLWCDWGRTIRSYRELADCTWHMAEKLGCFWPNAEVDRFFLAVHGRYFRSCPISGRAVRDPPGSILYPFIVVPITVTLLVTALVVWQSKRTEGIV
In words: FACS on transfected 293-6E cells. The procedure:
as §2

For assay [13], the target named is T5, chimeric CGRP receptor: CRLR wt + RAMP1 chimera #3 (R67 to E78) (human; human/rat chimera, UniProt Q16602 23-461; O60894 27-148).
T5 construct: also called CRLR wt+RAMP1 R67-E78
T5 chain 1: T2 chain 1 with N55D, V431L
T5 chain 2: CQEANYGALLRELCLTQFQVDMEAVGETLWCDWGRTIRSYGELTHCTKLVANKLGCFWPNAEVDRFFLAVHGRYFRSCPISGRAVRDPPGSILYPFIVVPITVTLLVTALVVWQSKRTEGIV
In words: FACS on transfected 293-6E cells. The procedure: as §2

For assay [14], the target named is T6, chimeric CGRP receptor: CRLR chimera #1 (L24 to Q33) + RAMP1 wt (human/rat chimera; human, UniProt Q16602 1-461; O60894 27-148).
T6 construct: also called CRLR L24-Q33+RAMP wt
The assay is described as follows: FACS on transfected 293-6E cells. On the procedure: as §2

B1: 12G8 (antibody, human IgG2, lambda, V domains shown)
VH: QVQLVESGGGVVQPGRSLRLSCAASGFTFSSFGMHWVRQAPGKGLEWVAVISFDGSIKYSVDSVKGRFTISRDNSKNTLFLQMNSLRAEDTAVYYCARDRLNYYDSSGYYHYKYYGLAVWGQGTTVTVSS
VL: QSVLTQPPSVSAAPGQKVTISCSGSSSNIGNNYVSWYQQLPGTAPKLLIYDNNKRPSGIPDRFSGSKSGTSATLGITGLQTGDEADYYCGTWDSRLSAVVFGGGTKLTVLG
notes: also called 12G8.2
For the molecule B1, the “cAMP assay IC50” value in assay [1] is 2.14 nM; in [2], 2.74 nM; with rat CGRP receptor, more than 1000 nM; in [3], more than 1000 nM; in [4] it was more than 1000 nM; in assay [5], more than 1000 nM. Also, the inhibition constant (Ki) in assay [6] worked out at 0.017 nM. Moreover, in [7], the equilibrium dissociation constant (Kd) stood at 1.4 nM. Moreover, the figures for the concentration giving a half-maximal response (EC50 (read off the curve)) in assay [8] and in assay [9] were approximately 2 nM and approximately 8 nM, respectively.

B2: 4E4 (antibody, human IgG2, lambda, V domains shown)
VH: B1 VH with L117M
VL: B1 VL with A72T
notes: also called 04E4; 04E4.2
As to B2, the binding result in assay [10] is “binds”. Moreover, the “cAMP assay IC50” value in assay [2] is 3.52 nM; in the assay with rat CGRP receptor, more than 1000 nM; in assay [3], more than 1000 nM; in assay [4], more than 1000 nM; in [5] it was more than 1000 nM.

B3: 3B6 (antibody, human IgG2, lambda, V domains shown)
VH: not shown
VL: SSELTQDPTVSVALGQTVKITCQGDSLRSFYASWYQQKPGQAPVLVFYGKNNRPSGIPDRFSGSSSGNTASLTITGAQAEDEADYYCNSRDSSVYHLVLGGGTKLTVLG
notes: also called 03B6; 03B6.2
For the molecule B3, the binding result in [10] is “binds”. The “cAMP assay IC50” value was 2.22 nM in assay [2]; more than 1000 nM with rat CGRP receptor; more than 1000 nM in assay [3]; more than 1000 nM in [4]; more than 1000 nM in assay [5].

B4: 33B5 (antibody, V domains shown)
VH: not shown
VL: DIQMTQSPSSLSASVGDRVTITCRASQGIRNDLGWYQQKPGKAPKRLIYVASSLQSGVPSRFSGSGSGTEFTLTISSLQPEDFATYYCLQYNTYPLTFGGGTKVEIK
Turning to B4, the binding result in assay [11], in [12], in assay [13] and in assay [14] was “binds” in each case.
